Measurements taken from the supplement of paper PMC10724198.
± gives the standard deviation of the averaged measurements.

System: Saccharomyces cerevisiae
Experiment: protein stability index of tFT-peptide fusion (C-terminal peptide) (PSI (0-1 scale)); higher = more stable (slower turnover)
Settings: genetic background: wild type; temperature: 30 C
Protocol: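 Multiplexed protein stability (MPS) profiling in S. cerevisiae. Random 12-aa peptides (tFT-X12 library) are fused to the C-terminus of a sfGFP-mCherry tandem fluorescent timer, after mCherry and a GGGS linker. Cells are FACS-sorted into 8 mCherry/sfGFP bins and deep-sequenced. The protein stability index (PSI) is the read-weighted bin average, scaled from 0 (unstable) to 1 (stable). Only peptides with >10 reads are reported; cells were grown at 30 °C in SC-His with glucose.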
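Note: PSI is a weighted mean of sequencing reads over stability bins, variants kept only with over 10 reads, mCherry proximal and sfGFP distal, peptide attached via GGGS linker.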

Sequence | protein stability index
GHIQDSLSPDPH | 0.613 ± 0.013
GHSLDPSVVSPD | 0.674 ± 0.068
GHVLVRHNVLAV | 0.58 ± 0.026
GHYPCLPFLFPL | 0.707 ± 0.087
GIDVGCEWYQGG | 0.698 ± 0.037
GIEKEADRVRKN | 0.659 ± 0.07
GIGGYACHFYVW | 0.673 ± 0.012
GIGSSKESGGLW | 0.737 ± 0.05
GIGVGGIHGGIL | 0.7547 ± 0.0044
GIRAVRYFNSCC | 0.598 ± 0.011
GIRFGLVCYPNF | 0.6537 ± 0.0025
GIRVEWVGRNRC | 0.676 ± 0.023
GISFFPVGGPLI | 0.735 ± 0.062
GISPDGSSIMAA | 0.689 ± 0.02
GITCAEGAAMKR | 0.676 ± 0.022
GIVGFSHGIISL | 0.703 ± 0.032
GIYARPRPTQCP | 0.6718 ± 0.0037
GIYLEESPMRKF | 0.708 ± 0.014
GKERIYVYGWSK | 0.686 ± 0.016
GKEWRGSGGMRR | 0.646 ± 0.014
GKGKETKELIGK | 0.711 ± 0.023
GKLGSSPQLRYY | 0.704 ± 0.046
GKLRTVVCMCYI | 0.643 ± 0.1
GKNKRERNRSSG | 0.771 ± 0.14
GKRGGTGAGEKR | 0.66 ± 0.071

Sequence | protein stability index
GKRVNLNITSHS | 0.683 ± 0.024
GKSHLGGSLTVL | 0.671 ± 0.034
GKSVVAHGLLGG | 0.6702 ± 0.0018
GKSYWYDSGNMM | 0.752 ± 0.078
GLACSRYVLFWK | 0.562 ± 0.023
GLAYGICYRVVL | 0.637 ± 0.011
GLCTSIFSVVFF | 0.679 ± 0.092
GLCVTEFCGFFL | 0.705 ± 0.019
GLDVFFPMDRQA | 0.764 ± 0.08
GLGALPVRVWEG | 0.731 ± 0.034
GLGGPYNSHMFT | 0.991 ± 0.013
GLGGYVIKYIMI | 0.572 ± 0.02
GLGLAFRGSFVL | 0.69 ± 0.056
GLGREVAIMNTW | 0.669 ± 0.058
GLGWGGRGMRVV | 0.695 ± 0.026
GLMGWGLFCGFG | 0.7759 ± 0.0043
GLPRAANMKGSE | 0.652 ± 0.011
GLREGRRRSNDQ | 0.653 ± 0.12
GLRFIAMNIQML | 0.658 ± 0.026
GLRIRFSNSYVG | 0.688 ± 0.057
GLRLCLSMWLRD | 0.633 ± 0.054
GLRTPHASVPPQ | 0.66 ± 0.023
GLSDLTFFKRLF | 0.659 ± 0.036
GLSIVCRHYEES | 0.685 ± 0.022
GLSLLVDLNVWF | 0.569 ± 0.034

Sequence | protein stability index
GLSSNVTSSTLS | 0.685 ± 0.015
GLTSRIAAGRQR | 0.696 ± 0.022
GLTWLVLGFPGS | 0.757 ± 0.052
GLVGRGGAVGEW | 0.68596 ± 0.00038
GLVSGGFYFGLL | 0.681 ± 0.054
GLVVCGGQVVEG | 0.704 ± 0.042
GLVWGGCGTVGG | 0.768 ± 0.17
GLVWGGGGTVGG | 0.73 ± 0.12
GLVWRSRDDQLS | 0.764 ± 0.07
GLYSGGLGAGVG | 0.658 ± 0.092
GMGTWSSNRREC | 0.872 ± 0.18
GMLLCAGGISKG | 0.584 ± 0.011
GMVFGLAWCGCL | 0.619 ± 0.046
GNHNGKIILDNR | 0.679 ± 0.023
GNNREGYRSAQA | 0.599 ± 0.054
GNVLIRFSCSDS | 0.754 ± 0.05
GNWRGLRLMSAP | 0.7603 ± 0.0062
GPAGGGRLECGV | 0.7157 ± 0.0069
GPCTTFVVLLPE | 0.778 ± 0.14
GPFGCLRSLIRG | 0.642 ± 0.097
GPGAGRRKSAER | 0.61607 ± 0.00056
GPGGVGGTSGGK | 0.69 ± 0.062
GPGVGYGRWRGG | 0.667 ± 0.094
GPHGNPGLAPLA | 0.7282 ± 0.0021
GPLRPTPAPNRT | 0.644 ± 0.0079

Sequence | protein stability index
GPPFAPASPVPL | 0.761 ± 0.038
GPPPPPPFPPLP | 0.708 ± 0.0076
GPRQGVLEAASS | 0.636 ± 0.025
GPSIYGFEESFS | 0.691 ± 0.0093
GPSPPSPSPPPL | 0.622 ± 0.0084
GPSRTPRHPSPP | 0.701 ± 0.053
GPSWYGKNSLHK | 0.686 ± 0.051
GPVTDWPLLLFK | 0.5901 ± 0.0015
GQDNSEVLGSVQ | 0.668 ± 0.12
GQHAAVNASVVR | 0.665 ± 0.013
GQIACSECGGGG | 0.679 ± 0.027
GQKRKGTRSKVP | 0.696 ± 0.026
GQSGFGYVGSMK | 0.669 ± 0.049
GQSLGLPGRWYI | 0.775 ± 0.06
GQTMDLRKCTGP | 0.6436 ± 0.0037
GQVGDRVVSVGL | 0.694 ± 0.028
GQWCVAAALIER | 0.699 ± 0.1
GQWGGATLGLVG | 0.777 ± 0.021
GRAGLRIESSKY | 0.692 ± 0.024
GRAVCRALVEAR | 0.552 ± 0.031
GRCIPSFVLPRY | 0.693 ± 0.029
GRCSRGVEGVSG | 0.675 ± 0.034
GRCWVMCSEGEK | 0.64 ± 0.057
